Data: US20060257938A1, “Method of screening for drugs that block ligand binding to a lipid binding protein” (priority 2005, published 2006)
Numbering of substitutions follows the chain as printed.

B1: 104R1, 72A (protein, listed as Rattus norvegicus)
chain: AFDGTWKVDRNENYEKFMEKMGINVVKRKLGAHDNLKLTITQEGNKFTVKESSNFRNIDVVFELGVDFAYSAADGTELTGTWTMEGNKLVGKFKRVDNGKELIRVREISGNELIQTYTYEGVEAKRIFKKE
modifications: PEPTIDE (1)...(131) wild-type rat intestinal fatty acid binding protein
B2: 104Y1, 72A (protein, listed as Rattus norvegicus)
chain: B1 chain with R104Y
modifications: PEPTIDE (1)...(131) wild-type rat intestinal fatty acid binding protein
B3: 104T1, 72A (protein, listed as Rattus norvegicus)
chain: B1 chain with R104T
modifications: PEPTIDE (1)...(131) wild-type rat intestinal fatty acid binding protein
B4: 106A1, 72A (protein, listed as Rattus norvegicus)
chain: B1 chain with R104A, R106A
modifications: PEPTIDE (1)...(131) wild-type rat intestinal fatty acid binding protein
B5: 104S2, 72A (protein, listed as Rattus norvegicus)
chain: B1 chain with R104S
modifications: PEPTIDE (1)...(131) wild-type rat intestinal fatty acid binding protein
B6: 106D3, 72A (protein, listed as Rattus norvegicus)
chain: B1 chain with R104A, R106D
modifications: PEPTIDE (1)...(131) wild-type rat intestinal fatty acid binding protein
B7: 106F1, 72A (protein, listed as Rattus norvegicus)
chain: B1 chain with R104A, R106F
modifications: PEPTIDE (1)...(131) wild-type rat intestinal fatty acid binding protein
B8: 106C2, 72A (protein, listed as Rattus norvegicus)
chain: B1 chain with R104A, R106C
modifications: PEPTIDE (1)...(131) wild-type rat intestinal fatty acid binding protein
B9: 104V1, 72A (protein, listed as Rattus norvegicus)
chain: B1 chain with R104V
modifications: PEPTIDE (1)...(131) wild-type rat intestinal fatty acid binding protein

experiment: Probe fluorescence ratio response to palmitic acid relative to ADIFAB2; format: binding; settings: response relative to ADIFAB2
How it was run: (§1)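 Each fatty acid's response was expressed relative to ADIFAB2, the rI-FABP-L72A probe, as ΔR/ΔRreference. ΔR is the change in the background-corrected two-wavelength intensity ratio R=Fλ1/Fλ2 from its analyte-free baseline R0. Emission was read near about 420-480 nm for unbound and about 495-580 nm for FFA-bound probe.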

Molecule | DR/DR PA
B1 | 1.00
B2 | 0.14
B3 | 0.99
B4 | 0.16
B5 | 1.57
B6 | 0.26
B7 | 0.38
B8 | 0.09
B9 | 0.63

experiment: Probe fluorescence ratio response to oleic acid relative to ADIFAB2; format: binding; settings: response relative to ADIFAB2
How it was run: as §1

Molecule | DR/DR OA
B1 | 1.20
B2 | 0.24
B3 | 1.10
B4 | 0.60
B5 | 1.66
B6 | 0.64
B7 | 0.78
B8 | 0.22
B9 | 0.76

experiment: Probe fluorescence ratio response to arachidonic acid relative to ADIFAB2; format: binding; settings: arachidonic acid; response relative to ADIFAB2
How it was run: as §1

Molecule | DR/DR AA
B1 | 1.14
B2 | 0.36
B3 | 1.01
B4 | 0.39
B5 | 1.64
B6 | 0.66
B7 | 0.75
B8 | 0.17
B9 | 0.63

experiment: Probe fluorescence ratio response to linolenic acid relative to ADIFAB2; format: binding; settings: response relative to ADIFAB2
How it was run: as §1

Molecule | DR/DR LNA
B1 | 1.13
B2 | 0.28
B3 | 1.07
B4 | 0.52
B5 | 1.54
B6 | 0.77
B7 | 0.71
B8 | 0.22
B9 | 0.73

experiment: Probe fluorescence ratio response to linoleic acid relative to ADIFAB2; format: binding; settings: response relative to ADIFAB2
How it was run: as §1

Molecule | DR/DR LA
B1 | 1.22
B2 | 0.26
B3 | 1.16
B4 | 0.51
B5 | 1.71
B6 | 0.80
B7 | 0.78
B8 | 0.20
B9 | 0.73
